Reference: IntAct's records for PubMed 11473260

B1: SAGA complex/transcription factor TFIID complex subunit TAF12 (Saccharomyces cerevisiae), Q03761 (parent)
chain: MSSNPENSGVNANNNTGTGNADAITGAQQNMVLQPRQLQEMAAKFRTLLTEARNVGETTPRGKELMFQAAKIKQVYDALTLNRRRQQAAQAYNNTSNSNSSNPASIPTENVPNSSQQQQQQQQQTRNNSNKFSNMIKQVLTPEENQEYEKLWQNFQVRHTSIKEKETYLKQNIDRLEQEINKQTDEGPKQQLQEKKIELLNDWKVLKIEYTKLFNNYQNSKKTFYVECARHNPALHKFLQESTQQQRVQQQRVQQQQQQQQQQQQQQQQQQQQQQQRQGQNQRKISSSNSTEIPSVTGPDALKSQQQQQNTITATNNPRGNVNTSQTEQSKAKVTNVNATASMLNNISSSKSAIFKQTEPAIPISENISTKTPAPVAYRSNRPTITGGSAMNASALNTPATTKLPPYEMDTQRVMSKRKLRELVKTVGIDEGDGETVIDGDVEELLLDLADDFVTNVTAFSCRLAKHRKSDNLEARDIQLHLERNWNIRIPGYSADEIRSTRKWNPSQNYNQKLQSITSDKVAAAKNNGNNVASLNTKK
partner: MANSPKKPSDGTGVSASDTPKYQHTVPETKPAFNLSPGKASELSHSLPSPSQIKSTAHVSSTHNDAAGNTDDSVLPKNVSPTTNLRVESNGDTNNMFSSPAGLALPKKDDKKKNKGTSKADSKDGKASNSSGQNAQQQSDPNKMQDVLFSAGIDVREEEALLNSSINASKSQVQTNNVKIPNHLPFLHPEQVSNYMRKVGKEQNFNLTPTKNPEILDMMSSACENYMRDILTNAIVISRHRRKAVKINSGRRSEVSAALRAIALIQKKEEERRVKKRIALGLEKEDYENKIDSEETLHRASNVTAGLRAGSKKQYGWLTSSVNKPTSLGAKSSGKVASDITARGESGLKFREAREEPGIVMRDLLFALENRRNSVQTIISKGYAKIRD

Variants of: B1
Details: with taf4_yeast TAF4, P50105

| Variant | effect of a mutation on the interaction |
| --- | --- |
| L446A | disrupting interaction |
| L449A | disrupting interaction |
